Source: patent US20080153773A1, “MODULATORS OF PHOSPHOTYROSYL PHOSPHATASE ACTIVATOR” (priority 2006, published 2008)
Substitutions are numbered along the chain they refer to. Numbers in names are those of the source.

T1: PTPA-PP2A A-C dimer complex (Homo sapiens, UniProt Q15257)
T1 construct: His6 (C); GST (N); His8 (N); made in house; host or cells: PTPA: E. coli BL21(DE3), pET21b; PP2A C: baculovirus / insect cells
T1 sequence (Q15257 1-323 isoform Q15257-2): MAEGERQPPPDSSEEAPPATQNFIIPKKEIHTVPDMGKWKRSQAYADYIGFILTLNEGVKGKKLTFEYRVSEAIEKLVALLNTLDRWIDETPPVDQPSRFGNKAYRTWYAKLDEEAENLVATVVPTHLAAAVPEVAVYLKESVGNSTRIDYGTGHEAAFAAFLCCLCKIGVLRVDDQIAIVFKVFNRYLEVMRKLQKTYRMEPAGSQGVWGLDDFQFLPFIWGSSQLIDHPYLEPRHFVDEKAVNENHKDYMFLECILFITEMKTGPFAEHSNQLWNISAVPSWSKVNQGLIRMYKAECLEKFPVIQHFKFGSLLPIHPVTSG

B1: phosphotyrosyl phosphatase activator (protein, UniProt Q15257 2-358, looked up)
Serine/threonine-protein …: AEGERQPPPDSSEEAPPATQNFIIPKKEIHTVPDMGKWKRSQAYADYIGFILTLNEGVKGKKLTFEYRVSEMWNEVHEEKEQAAKQSVSCDECIPLPRAGHCAPSEAIEKLVALLNTLDRWIDETPPVDQPSRFGNKAYRTWYAKLDEEAENLVATVVPTHLAAAVPEVAVYLKESVGNSTRIDYGTGHEAAFAAFLCCLCKIGVLRVDDQIAIVFKVFNRYLEVMRKLQKTYRMEPAGSQGVWGLDDFQFLPFIWGSSQLIDHPYLEPRHFVDEKAVNENHKDYMFLECILFITEMKTGPFAEHSNQLWNISAVPSWSKVNQGLIRMYKAECLEKFPVIQHFKFGSLLPIHPVTSG
modifications: His6 tag
B2: V209D: missense mutant of human PTPA (protein, UniProt Q15257 2-358, looked up, variant V209D)
Serine/threonine-protein …: B1 Serine/threonine-protein … with V208D
B3: G205D: missense mutant of human PTPA (protein, UniProt Q15257 2-358, looked up, variant G205D)
Serine/threonine-protein …: B1 Serine/threonine-protein … with G204D

Key:
[1] = tested on: PTPA-PP2A A-C dimer complex; experiment: ATPase activity assay (Malachite Green); type: biochemical, human; settings: for ATPase activity: with equi-molar amount of PP2A A-C dimer
Protocol: (§1) Protein samples were prepared in 100 mM NaCl, 20 mM HEPES, pH 7.5, and 2 mM dithiothreitol. The release of free phosphate group was measured by the calorimetric Malachite Green Reagent (BioAssay Systems, Hayward, Calif.) using NaH2PO4 as phosphate standard. The protein concentration was determined by a combination of OD absorption at 280 nm and Bio-Rad Protein Assay (Bio-Rad).

[2] = target: T2, PP2A A-C dimer (Homo sapiens, UniProt P67775); experiment: Phosphorylase a phosphatase assay (pSer activity); type: biochemical
T2 construct: GST (N); His8 (N); made in house; C subunit: baculovirus / insect cells; dimer assembled in vitro
T2 sequence (P30153 whole entry partner): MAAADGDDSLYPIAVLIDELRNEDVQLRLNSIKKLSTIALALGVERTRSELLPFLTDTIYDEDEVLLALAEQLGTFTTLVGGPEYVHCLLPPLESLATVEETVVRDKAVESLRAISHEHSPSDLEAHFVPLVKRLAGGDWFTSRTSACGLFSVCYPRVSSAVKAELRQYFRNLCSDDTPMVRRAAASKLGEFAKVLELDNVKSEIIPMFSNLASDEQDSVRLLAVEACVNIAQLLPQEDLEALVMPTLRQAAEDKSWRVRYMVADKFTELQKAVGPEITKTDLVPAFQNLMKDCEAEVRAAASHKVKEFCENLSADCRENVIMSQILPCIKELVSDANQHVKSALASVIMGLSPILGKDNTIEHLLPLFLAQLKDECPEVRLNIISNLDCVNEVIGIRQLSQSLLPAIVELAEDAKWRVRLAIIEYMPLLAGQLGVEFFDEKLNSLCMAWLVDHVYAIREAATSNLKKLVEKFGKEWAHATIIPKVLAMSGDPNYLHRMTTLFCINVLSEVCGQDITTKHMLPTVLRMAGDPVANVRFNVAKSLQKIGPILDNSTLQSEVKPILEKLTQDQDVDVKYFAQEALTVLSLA
T2 sequence (P67775 whole entry): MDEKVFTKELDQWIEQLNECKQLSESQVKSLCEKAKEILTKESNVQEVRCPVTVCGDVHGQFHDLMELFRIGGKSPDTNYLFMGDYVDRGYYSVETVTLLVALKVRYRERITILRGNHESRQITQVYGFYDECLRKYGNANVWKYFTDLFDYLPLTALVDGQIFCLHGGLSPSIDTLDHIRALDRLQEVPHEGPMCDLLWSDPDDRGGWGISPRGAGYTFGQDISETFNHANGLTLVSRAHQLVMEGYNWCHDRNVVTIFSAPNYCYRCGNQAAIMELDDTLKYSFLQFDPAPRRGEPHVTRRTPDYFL
Protocol: (§2) To measure the phosphatase activity of PP2A, 5 μl of each PP2A sample was added to 45 μl of 0.5 mg/ml of radio-labeled ^32P-phosphorylase b dissolved in 50 mM MOPS buffer containing 1 mM DTT and 5 mM caffeine. Reactions were performed at 37° C. for 10 minutes, and stopped by addition of 10% TCA and 0.5 mg/ml BSA. Samples were kept on ice for 10 minutes to allow complete precipitation of proteins, and were centrifuged for 10 minutes at 14K rpm. Supernatants containing the released ^32P were added to 3 ml Ecosint and the intensity was measured by scintillation counter.

[3] = target: T2, PP2A A-C dimer; experiment: pNPPase activity assay; type: biochemical; settings: for stimulation of pNPPase activity of PP2A by PTPA or PTPA mutant: FIG. 6B/6C
Protocol: (§3) The phosphatase activity using pNPP as substrate was performed on a 96-well plate. Briefly, 50 μl of 50 mM pNPP dissolved in 50 mM Tris-HCl (pH 8.2) buffer containing 1 mM DTT, 10 mM MgCl2 and 0.1 mg/ml BSA was added to each well. The reaction was initiated by addition of 10 μl of PP2A samples in the presence or absence of ATP and PTPA. The plate was incubated at 37° C. for 5-20 minutes and the enzymatic reaction product was measured by the absorbance at 405 nm using a plate reader.

[4] = target: T2, PP2A A-C dimer; experiment: Phosphotyrosine phosphatase assay using a fluorogenic peptide as the substrate; type: biochemical; settings: equi-molar PTPA and PP2A, with ATP/Mg2+, FIG. 6G
Protocol: A protein tyrosine phosphatase assay kit (EMD Biosciences) was used to measure phosphotyrosine phosphatase activity. 50 nM PP2A and PTPA, or PTPA mutants were added to a fluorogenic phosphopeptide substrate (MCA-Gly-Asp-Ala-Glu-pTyr-Ala-Ala-Lys(DNP)-Arg-NH2, 1 μM) and incubated at room temperature under very low light conditions. After 10 minutes of incubation, sodium vanadate solution was added to stop the reaction. […] The fluorescent intensity was monitored at 328 nm (excitation) and 395 nm (emission), using a Hitachi F2500 fluorescence spectrophotometer.

[5] = target: T2, PP2A A-C dimer; experiment: Native polyacrylamide gel electrophoresis (native PAGE) binding; settings: quantification of native-PAGE, FIG. 4C; read-out: dissociation constant between PP2A A-C dimer and PTPA
Protocol: All assays were performed at 4° C. to offset heat generated by electrophoresis. 6% poly-acrylamide (37.5:1 acrylamide:bis-acrylamide) gels were used under the buffer condition of 65 mM Tris, pH 8.5, and 65 mM boric acid. All protein samples were prepared in a 40 μl volume containing 25 mM Tris, pH 8.0, 150 mM NaCl, 2 mM DTT, and 5% glycerol. After pre-running the gels for 15 minutes, half of each sample (20 μl) was loaded into each lane and was subjected to electrophoresis with constant electric field of 15 volts/cm. The gels were stained using coomassie blue, destained, and dried for photography. The gels were scanned by a densitometer, which allowed the estimate of the binding affinity between WT PTPA and PP2A A-C dimer.

[6] = target: T1, PTPA-PP2A A-C dimer complex; experiment: ATPase activity assay (Malachite Green); type: biochemical; settings: PTPA alone, without PP2A; 1 mM ATP and 5 mM Mg2+
Protocol: as §1

[7] = target: T2, PP2A A-C dimer; experiment: Substrate preference of PP2A (phosphorylase b versus pNPP); type: biochemical; settings: for shift of substrate preference of PP2A from phosphorylase b to pNPP: PTPA mutants, FIG. 6F
Protocol: as §3, §2

[8] = target: T2, PP2A A-C dimer; experiment: GST-mediated pull-down assay; type: binding; settings: FIG. 4A; mutants compared with WT PTPA
Protocol: Approximately 30 μg of stoichiometric PP2A A-C dimer were bound to 30 μl of glutathione resin via GST-A protein. The resin was washed with 200 μl assay buffer 3 times to remove excess unbound PP2A. Then 10 μg of WT or mutant PTPA were allowed to bind the resin in a 125-μl volume. After washing 4 times with an assay buffer containing 25 mM Tris, pH 8.0, 150 mM NaCl, and 2 mM dithiothreitol (DTT), the remaining protein and resin were mixed with 15-μl SDS sample buffer and applied to SDS-PAGE. The results were visualized by SDS-polyacrylamide gel electrophoresis (SDS-PAGE) with coomassie staining.

Molecule | stimulation of pTyr phosphatase activity of PP2A (peptide substrate) [4] | ATPase activity ([1]; 1 mM ATP and 5 mM Mg2+) | interaction with PP2A A-C dimer in GST-mediated pull-down [8] | stimulation of pNPPase activity of PP2A by PTPA or PTPA mutant ([3]; with ATP/Mg2+) | shift of substrate preference of PP2A from phosphorylase b to pNPP [7] | further results
C=C1[C@@H](O)[C@@H]2O[C@]3(CC[C@H](/C=C/[C@@H](C)[C@@H]4CC(C)=C[C@@]5(O[C@H](C[C@@](C)(O)C(=O)O)CC[C@H]5O)O4)O3)CC[C@H]2O[C@@H]1[C@@H](O)C[C@H](C)[C@H]1O[C@@]2(CCCCO2)CC[C@H]1C [okadaic acid, reference compound] |  |  |  |  |  | inhibition of PTPA/PP2A ATPase activity ([1]; FIG. 5A): inhibited
ATP [ATP/Mg^2+, reference compound] |  |  |  |  |  | effect of ATP/Mg2+ on PP2A pSer activity ([2]; with PTPA or mutants, FIG. 6D): did not effect
Nc1ncnc2c1ncn2[C@@H]1O[C@H](COP(=O)(O)OP(=O)(O)OP(O)(O)=S)[C@@H](O)[C@H]1O [ATPγS, reference compound] |  |  |  |  |  | stimulation of pNPPase activity of PP2A by ATP analog ([3]; provided to PP2A alone or in the presence of PTPA, FIG. 6B): fails to stimulate
B1 | enhanced phosphotyrosine phosphatase activity | significant ATPase activity | formed a stable complex | greatly enhanced |  | Kd [5]: ~1000 nM; ATPase activity [6]: did not exhibit any detectable ATPase activity; catalytic turnover rate of ATPase activity ([1]; PTPA with equi-molar PP2A A-C dimer, 1 mM ATP and 5 mM Mg2+): approximately 2 per minute; Km ([1]; equi-molar amount of PP2A and PTPA, FIG. 5B): ~400 µM; PP2A pSer/pThr activity relative to PP2A alone ([2]; about 20-to-1 molar ratio of PTPA to PP2A (maximal reduction), FIG. 6E): approximately 25%; reduction of PP2A pSer activity ([2]; equi-molar amount of WT PTPA, FIG. 6D): approximately 45%; effect on pSer activity of PP2A in titration ([2]; titrated against a fixed amount of PP2A A-C dimer, FIG. 6E): inhibited the pSer activity of PP2A in a concentration-dependent manor; shift of substrate preference of PP2A A-C dimer from phosphorylase b to pNPP ([7]; stoichiometric ratio of 1:1, FIG. 6F): about 10 fold; pNPPase activity of PTPA-stimulated PP2A relative to PP2A in the absence of PTPA ([3]; equi-molar concentrations, with ATP/Mg2+): approximately 6 fold
B2 | did not stimulate | significantly lower or undetectable ATPase activity | significantly compromised binding |  | not observed | 
B3 | did not stimulate | significantly lower or undetectable ATPase activity | did not have a significant effect | do not stimulate | not observed | 
